Measurements taken from patent US20260001961A1 (ALLIGATOR BIOSCIENCE, published 2026).
Like-named read-outs stand apart in the source and are kept apart here.

Assays:
[1] = biological target: T1, 5T4 expressed on CHO cells (UniProt Q13641 32-420, limits assumed); experiment: flow cytometry on CHO cells expressing 5T4, anti-human IgG Fcg-PE; CHOwt cells as control
T1 construct: whole, on cells; also called CHO-5T4; 5T4 expressing CHO cells
T1 sequence (looked up): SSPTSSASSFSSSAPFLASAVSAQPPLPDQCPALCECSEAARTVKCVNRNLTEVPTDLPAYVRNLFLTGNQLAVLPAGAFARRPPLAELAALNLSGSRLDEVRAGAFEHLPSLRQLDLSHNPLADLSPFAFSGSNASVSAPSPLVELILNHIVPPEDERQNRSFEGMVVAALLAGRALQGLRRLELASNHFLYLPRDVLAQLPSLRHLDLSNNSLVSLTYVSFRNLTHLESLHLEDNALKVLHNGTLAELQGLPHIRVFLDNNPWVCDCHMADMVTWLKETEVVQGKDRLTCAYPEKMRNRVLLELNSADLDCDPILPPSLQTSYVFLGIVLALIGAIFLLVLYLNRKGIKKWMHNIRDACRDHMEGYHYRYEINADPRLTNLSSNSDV
Procedure: (§1) Binding to respective targets expressed on cells were evaluated using flow cytometry. I brief, CHO cells modified to express 5T4, B16 cells modified to express CD40 as well as the wildtype CHO and B16 cell lines were incubated with titrated concentrations of RUBY™ bsAbs. Binding of the antibodies was detected using fluorochrome-conjugated anti-human IgG and analyzed using flow cytometry.

[2] = biological target: T2, CD40 expressed on cells (UniProt P25942 21-277); experiment: flow cytometry on B16 cells expressing CD40, anti-human IgG Fcg-PE; B16wt cells as control
T2 construct: whole, on cells; also called B16-CD40; CD40 expressing B16 cells
Procedure: as §1

[3] = biological target: T3, CD40 (UniProt P25942 21-193); experiment: dual target ELISA with 5T4 and CD40 (one coated, the other biotinylated; which is not stated), streptavidin-HRP; signal needs both targets
T3 construct: also called biotinylated CD40; CD40 antigen

[4] = biological target: T4, 5T4 (UniProt Q13641 32-355); experiment: as above
T4 construct: also called 5T4 antigen (dual target ELISA)
T4 sequence (looked up): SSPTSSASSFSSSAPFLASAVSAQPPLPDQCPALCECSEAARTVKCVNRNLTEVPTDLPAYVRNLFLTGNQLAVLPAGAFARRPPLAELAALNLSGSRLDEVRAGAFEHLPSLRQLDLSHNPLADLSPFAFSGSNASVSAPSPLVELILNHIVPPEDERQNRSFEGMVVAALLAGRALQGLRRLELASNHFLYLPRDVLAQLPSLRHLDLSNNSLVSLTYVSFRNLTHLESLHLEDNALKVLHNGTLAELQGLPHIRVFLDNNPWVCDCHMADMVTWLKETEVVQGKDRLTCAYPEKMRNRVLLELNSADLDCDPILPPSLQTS

[5] = biological target: T2, CD40 expressed on cells; experiment: flow cytometry on B16 cells expressing CD40, anti-human IgG Fcg-PE; B16wt cells as control; remark: listed apart in the source
Procedure: as §1

[6] = biological target: T1, 5T4 expressed on CHO cells; experiment: flow cytometry on CHO cells expressing 5T4, anti-human IgG Fcg-PE; CHOwt cells as control; remark: listed apart in the source
Procedure: as §1

[7] = biological target: T3, CD40; experiment: dual ELISA: CD40 coated, bsAb titrated, biotinylated EpCAM + streptavidin-HRP; signal needs both targets
Procedure: (§2) Dual ELISA Plates were coated with 0.5 μg/mL CD40 in PBS over night at 4° C. After washing in PBS/0.05% Tween 20 (PBST), the plates were blocked with PBS/2% BSA for at least 30 minutes at room temperature before being washed again. Samples serially diluted in PBS/0.5% BSA were then added and allowed to bind for at least 1 hour at room temperature. […] Dual complexed bsAb with CD40 and EpCAM were detected with HRP-labelled streptavidin. SuperSignal Pico Luminescent was used as substrate and luminescence signals were measured using Fluostar Optima.

[8] = biological target: T3, CD40; experiment: as above; remark: listed apart in the source
Procedure: as §2

T3 sequence (P25942 21-193 limits assumed): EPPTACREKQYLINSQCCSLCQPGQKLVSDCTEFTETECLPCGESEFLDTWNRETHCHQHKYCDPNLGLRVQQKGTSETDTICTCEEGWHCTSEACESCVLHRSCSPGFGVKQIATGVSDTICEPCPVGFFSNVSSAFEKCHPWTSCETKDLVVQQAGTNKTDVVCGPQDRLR
T2 sequence (P25942 21-277 limits assumed): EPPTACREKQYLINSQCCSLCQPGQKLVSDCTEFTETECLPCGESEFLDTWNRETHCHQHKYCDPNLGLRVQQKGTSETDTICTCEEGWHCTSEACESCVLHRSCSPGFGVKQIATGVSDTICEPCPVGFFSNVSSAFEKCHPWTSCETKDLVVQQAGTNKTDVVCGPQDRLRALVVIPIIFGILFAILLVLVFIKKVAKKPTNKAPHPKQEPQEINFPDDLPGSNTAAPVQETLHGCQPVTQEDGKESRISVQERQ

B1: AC_05330 (bispecific antibody, human IgG1, lambda, L234A L235A)
heavy: not shown
light: not shown
chain: EVQLLESGGGLVQPGGSLRLSCAASGFTFSSYAMSWVREAPGKGLEWVSAISGSGGSTYYADSVKGRFTISRDNSKNTLYLQMNSLRAEDTAVYYCARYYGGYYSAWMDYWGQGTLVTVSSASTKGPSVFPLAPSSKSTSGGTAALGCLVKDYFPEPVTVSWNSGALTSGVHTFPAVLQSSGLYSLSSVVEVPSSSLGTQTYICNVNHKPSNTKVDKKVEPKSC
notes: RUBY format; H1 (role heavy) = IgG heavy chain-linker-Fab light chain, L1 (role light) = IgG light chain, H2 (role chain) = Fab heavy chain; also called parental bsAb AC_05330; CD40x5T4
- EC50 (read off the curve) [1]: ~30000 pM
- EC50 (read off the curve) [2]: ~800 pM
- EC50 (read off the curve) [3]: ~800 pM
- EC50 (read off the curve) [4]: ~800 pM

B2: AC_05373 (bispecific antibody, human IgG1, lambda, L234A L235A)
heavy 1: not shown
light: not shown
heavy 2: EVQLLESGGGLVQPGGSLRLSCAASGFTFSSYAMSWVREAPGKGLEWVSAISGSGGSEYYADSVKGRFTISRDNSKNTLYLQMNSLRAEDTAVYYCARYYGGYYSAWMDYWGQGTLVTVSSASTKGPSVFPLAPSSKSTSGGTAALGCLVKDYFPEPVTVSWNSGALTSGVHTFPAVLQSSGLYSLSSVVEVPSSSLGTQTYICNVNHKPSNTKVDKKVEPKSC
notes: AC_05330 with the mutation in the VH of chain H2; also called T65E mutant of AC_05330; copies: 2 + 2 + 2
- EC50 (read off the curve) [1]: ~30000 pM
- EC50 (read off the curve) [2]: ~600 pM
- EC50 (read off the curve) [3]: ~700 pM
- EC50 (read off the curve) [4]: ~700 pM

B3: AC_05377 (bispecific antibody)
heavy 1: not shown
light: DIQMTQSPSSLSASVGDRVTITCRASQSISSYLNWYQEKPGKAPKLLIYAASSLQSGVPSRFSGSGSGTDFTLTISSLQPEDFATYYCQQYGRNPPTFGQGTKLEIKRTVAAPSVFIFPPSDEQLKSGTASVVCYLNNFYPREAKVQWKVDNALQSGNSQESVTEQDSKDSTYSLWSTLTLSKADYEKHKVYACEVTHQGLSSPVTKSFNRGEC
heavy 2: EVQLLESGGGLVQPGGSLRLSCAASGFTFSSYAMSWVREAPGKGLEWVSAISGSGGSAYYADSVKGRFTISRDNSKNTLYLQMNSLRAEDTAVYYCARYYGGYYSAWMDYWGQGTLVTVSSASTKGPSVFPLAPSSKSTSGGTAALGCLVKDYFPEPVTVSWNSGALTSGVHTFPAVLQSSGLYSLSSVVEVPSSSLGTQTYICNVNHKPSNTKVDKKVEPKSC
notes: AC_05302 with the mutation in the VH of chain H2; also called T65A mutant of AC_05302; copies: 2 + 2 + 2
- EC50 (read off the curve) [5]: ~1000 pM

B4: AC_05378 (bispecific antibody)
heavy 1: not shown
light: DIQMTQSPSSLSASVGDRVTITCRASQSISSYLNWYQEKPGKAPKLLIYAASSLQSGVPSRFSGSGSGTDFTLTISSLQPEDFATYYCQQYGRNPPTFGQGTKLEIKRTVAAPSVFIFPPSDEQLKSGTASVVCYLNNFYPREAKVQWKVDNALQSGNSQESVTEQDSKDSTYSLWSTLTLSKADYEKHKVYACEVTHQGLSSPVTKSFNRGEC
heavy 2: EVQLLESGGGLVQPGGSLRLSCAASGFTFSSYAMSWVREAPGKGLEWVSAISGSGGSIYYADSVKGRFTISRDNSKNTLYLQMNSLRAEDTAVYYCARYYGGYYSAWMDYWGQGTLVTVSSASTKGPSVFPLAPSSKSTSGGTAALGCLVKDYFPEPVTVSWNSGALTSGVHTFPAVLQSSGLYSLSSVVEVPSSSLGTQTYICNVNHKPSNTKVDKKVEPKSC
notes: AC_05302 with the mutation in the VH of chain H2; also called T65I mutant of AC_05302; copies: 2 + 2 + 2
- EC50 (read off the curve) [5]: ~1000 pM

B5: AC_05370 (bispecific antibody, human IgG1, kappa, L234A L235A)
heavy 1: not shown
light: DIQMTQSPSSLSASVGDRVTITCRASQSISSYLNWYQEKPGKAPKLLIYAASSLQSGVPSRFSGSGSGTDFTLTISSLQPEDFATYYCQQTYGYLHTFGQGTKLEIKRTVAAPSVFIFPPSDEQLKSGTASVVCYLNNFYPREAKVQWKVDNALQSGNSQESVTEQDSKDSTYSLWSTLTLSKADYEKHKVYACEVTHQGLSSPVTKSFNRGEC
heavy 2: EVQLLESGGGLVQPGGSLRLSCAASGFTFSSYAMSWVREAPGKGLEWVSGIGSYGGGEYYADSVKGRFTISRDNSKNTLYLQMNSLRAEDTAVYYCARYVNFGMDYWGQGTLVTVSSASTKGPSVFPLAPSSKSTSGGTAALGCLVKDYFPEPVTVSWNSGALTSGVHTFPAVLQSSGLYSLSSVVEVPSSSLGTQTYICNVNHKPSNTKVDKKVEPKSC
notes: AC_05332 with the mutation in the VH of chain H2; also called T65E mutant of AC_05332; copies: 2 + 2 + 2
- EC50 (read off the curve) [6]: ~9000 pM

B6: AM_4119 (bispecific antibody)
heavy 1: not shown
heavy 2: EVQLLEQSGAELVRPGTSVKISCKASGYAFTNYWLGWVKERPGHGLEWIGDIFPGSGNIHYNEKFKGKATLTADKSSSTAYMQLSSLTFEDSAVYFCARLRNWDEPMDYWGQGTTVTVSSASTKGPSVFPLAPSSKSTSGGTAALGCLVKDYFPEPVTVSWNSGALTSGVHTFPAVLQSSGLYSLSSVVEVPSSSLGTQTYICNVNHKPSNTKVDKKVEPKSC
light: DIQMTQSPSSLSASVGDRVTITCRASQSISSYLNWYQEKPGKAPKLLIYAASSLQSGVPSRFSGSGSGTDFTLTISSLQPEDFATYYCQQYGRNPPTFGQGTKLEIKRTVAAPSVFIFPPSDEQLKSGTASVVCYLNNFYPREAKVQWKVDNALQSGNSQESVTEQDSKDSTYSLWSTLTLSKADYEKHKVYACEVTHQGLSSPVTKSFNRGEC
notes: also called single mutant A111T of AC_05293; copies: 2 + 2 + 2
- EC50 (read off the curve) [7]: ~0.1 µg/mL

B7: AM_4120 (bispecific antibody)
heavy 1: not shown
heavy 2: EVQLLEQSGAELVRPGTSVKISCKASGYAFTNYWLGWVKERPGHGLEWIGDIFPGSGNIHYNEKFKGKATLTADKSSSTAYMQLSSLTFEDSAVYFCARLRNWDEPMDYWGQGTTVTVSSASTKGPSVFPLAPSSKSTSGGTAALGCLVKDYFPEPVTVSWNSGALTSGVHTFPAVLQSSGLYSLSSVVEVPSSSLGTQTYICNVNHKPSNTKVDKKVEPKSC
light: DIQMTQSPSSLSASVGDRVTITCRASQSISSYLNWYQEKPGKAPKLLIYAASSLQSGVPSRFSGSGSGTDFTLTISSLQPEDFATYYCQQYGRNPPTFGQGTKLEIKRTVAAPSVFIFPPSDEQLKSGTASVVCYLNNFYPREAKVQWKVDNALQSGNSQESVTEQDSKDSTYSLWSTLTLSKADYEKHKVYACEVTHQGLSSPVTKSFNRGEC
notes: also called single mutant A111V of AC_05293; copies: 2 + 2 + 2
- EC50 (read off the curve) [7]: ~0.1 µg/mL

B8: 4112 (bispecific antibody)
heavy 1: not shown
heavy 2: EVQLLEQSGAELVRPGTSVKISCKASGYAFTNYWLGWVKERPGHGLEWIGDIFPGSGNIHYNEKFKGKATLTADKSSSTAYMQLSSLTFEDSAVYFCARLRNWDEPMDYWGQGTTVTVSSASTKGPSVFPLAPSSKSTSGGTAALGCLVKDYFPEPVTVSWNSGALTSGVHTFPAVLQSSGLYSLSSVVEVPSSSLGTQTYICNVNHKPSNTKVDKKVEPKSC
light: DIQMTQSPSSLSASVGDRVTITCRASQSISSYLNWYQEKPGKAPKLLIYAASSLQSGVPSRFSGSGSGTDFTLTISSLQPEDFATYYCQQYGRNPPTFGQGTKLEIKRTVAAPSVFIFPPSDEQLKSGTASVVCYLNNFYPREAKVQWKVDNALQSGNSQESVTEQDSKDSTYSLWSTLTLSKADYEKHKVYACEVTHQGLSSPVTKSFNRGEC
notes: also called single mutant I126N of AC_05293; copies: 2 + 2 + 2
- EC50 (read off the curve) [8]: ~0.1 µg/mL

B9: 4114 (bispecific antibody)
heavy 1: not shown
heavy 2: EVQLLEQSGAELVRPGTSVKISCKASGYAFTNYWLGWVKERPGHGLEWIGDIFPGSGNIHYNEKFKGKATLTADKSSSTAYMQLSSLTFEDSAVYFCARLRNWDEPMDYWGQGTTVTVSSASTKGPSVFPLAPSSKSTSGGTAALGCLVKDYFPEPVTVSWNSGALTSGVHTFPAVLQSSGLYSLSSVVEVPSSSLGTQTYICNVNHKPSNTKVDKKVEPKSC
light: DIQMTQSPSSLSASVGDRVTITCRASQSISSYLNWYQEKPGKAPKLLIYAASSLQSGVPSRFSGSGSGTDFTLTISSLQPEDFATYYCQQYGRNPPTFGQGTKLEIKRTVAAPSVFIFPPSDEQLKSGTASVVCYLNNFYPREAKVQWKVDNALQSGNSQESVTEQDSKDSTYSLWSTLTLSKADYEKHKVYACEVTHQGLSSPVTKSFNRGEC
notes: also called single mutant I126Q of AC_05293; copies: 2 + 2 + 2
- EC50 (read off the curve) [8]: ~0.1 µg/mL

B10: AM_4121 (bispecific antibody)
heavy 1: not shown
heavy 2: EVQLLEQSGAELVRPGTSVKISCKASGYAFTNYWLGWVKERPGHGLEWIGDIFPGSGNIHYNEKFKGKATLTADKSSSTAYMQLSSLTFEDSAVYFCARLRNWDEPMDYWGQGTTVTVSSASTKGPSVFPLAPSSKSTSGGTAALGCLVKDYFPEPVTVSWNSGALTSGVHTFPAVLQSSGLYSLSSVVEVPSSSLGTQTYICNVNHKPSNTKVDKKVEPKSC
light: DIQMTQSPSSLSASVGDRVTITCRASQSISSYLNWYQEKPGKAPKLLIYAASSLQSGVPSRFSGSGSGTDFTLTISSLQPEDFATYYCQQYGRNPPTFGQGTKLEIKRTVAAPSVFIFPPSDEQLKSGTASVVCYLNNFYPREAKVQWKVDNALQSGNSQESVTEQDSKDSTYSLWSTLTLSKADYEKHKVYACEVTHQGLSSPVTKSFNRGEC
notes: also called single mutant A111W of AC_05293; copies: 2 + 2 + 2
- EC50 (read off the curve) [7]: ~0.1 µg/mL
